± gives the standard deviation of the averaged measurements.
Legend:
Saccharomyces cerevisiae [1] = assay: protein stability index of tFT-peptide fusion in wild type (PSI (0-1 scale)); higher = more stable (slower turnover); conditions: genetic background: wild type
Saccharomyces cerevisiae [2] = assay: protein stability index of tFT-peptide fusion (C-terminal peptide) (PSI (0-1 scale)); higher = more stable (slower turnover)
Description: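 MPS profiling in S. cerevisiae of the tFT-X12 degron library: putative degron peptides plus stable controls, 12 aa, fused to the C-terminus of a sfGFP-mCherry timer. Cells are FACS-sorted into 8 mCherry/sfGFP bins and deep-sequenced. PSI runs from 0 (unstable) to 1 (stable). Backgrounds are wild type, das1Δ and doa10Δ at 30 °C, and wild type, das1Δ, cdc34-1 and cdc53-1 at 37 °C; 2-3 technical replicates each.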

Saccharomyces cerevisiae [3] = assay: as above; conditions: genetic background: wild type; temperature: 30 C
Saccharomyces cerevisiae [4] = assay: protein stability index of tFT-peptide fusion in deletion strain of DOA10 (PSI (0-1 scale)); higher = more stable (slower turnover)
Description: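 MPS profiling in S. cerevisiae of two library types built from selected 12-aa C-degron peptides (IN1, IN2, LN1, LN3, VN2, R1-R5, W1-W3, Atg1 and Rpa12 C-termini): saturation mutagenesis libraries and C-terminal +1 capping libraries (13 aa). Each peptide is fused to the C-terminus of a sfGFP-mCherry timer, after a GGGS linker. Cells are FACS-sorted into 8 mCherry/sfGFP bins and sequenced. PSI runs from 0 (unstable) to 1 (stable), measured once in wild type and in the das1Δ or doa10Δ background.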

[5] = genetic background: cdc34-1, temperature: 37 C
[6] = genetic background: cdc53-1, temperature: 37 C
[7] = genetic background: das1 deletion, temperature: 30 C
[8] = genetic background: das1 deletion, temperature: 37 C
[9] = genetic background: doa10 deletion, temperature: 30 C
[10] = genetic background: wild type, temperature: 30 C
[11] = genetic background: wild type, temperature: 37 C
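Wherever protein stability index of tFT-peptide fusion (C-terminal peptide) is given: PSI is a weighted mean of sequencing reads over stability bins, variants kept only with over 10 reads, mCherry proximal and sfGFP distal, peptide attached via GGGS linker.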
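Wherever protein stability index of tFT-peptide fusion in deletion strain of DOA10 is given: PSI per variant is the weighted mean of its sequencing read distribution over the sorted stability bins, counting only variants with over 10 reads summed across bins.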
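Wherever protein stability index of tFT-peptide fusion in wild type is given: PSI derived as read-weighted mean over the 8 sorting bins, only variants exceeding 10 total reads kept, mCherry placed adjacent to the peptide and sfGFP distal.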

Sequence | protein stability index (Saccharomyces cerevisiae [1]) | protein stability index (Saccharomyces cerevisiae [4]) | also measured
AITLPMCPLLLR | 0.207 | 0.649 | protein stability index (Saccharomyces cerevisiae [2]; [5]): 0.0636 ± 0.0091; protein stability index (Saccharomyces cerevisiae [2]; [6]): 0.047 ± 0.0088; protein stability index (Saccharomyces cerevisiae [2]; [7]): 0.165 ± 0.017; protein stability index (Saccharomyces cerevisiae [2]; [8]): 0.204 ± 0.014; protein stability index (Saccharomyces cerevisiae [2]; [9]): 0.6226 ± 0.0028; protein stability index (Saccharomyces cerevisiae [2]; [10]): 0.16 ± 0.027; protein stability index (Saccharomyces cerevisiae [2]; [11]): 0.157 ± 0.0086; protein stability index (Saccharomyces cerevisiae [3]): 0.256 ± 0.018
AVTLPMCPLLLR | 0.261 | 0.648 | 
CLDSLPILLFFR | 0.214 | 0.664 | 
CLNSLPILLFFR | 0.109 | 0.627 | 
CLVELPILLFFR | 0.0526 | 0.625 | 
CLVSLDILLFFR | 0.265 | 0.355 | 
CLVSLPFLLFFR | 0.0627 | 0.618 | 
CLVSLPIALFFR | 0.0824 | 0.631 | 
CLVSLPILDFFR | 0.638 | 0.678 | 
CLVSLPILLFFF | 0.304 | 0.42 | 
CLVSLPILLFFR | 0.0566 | 0.586 | protein stability index (Saccharomyces cerevisiae [2]; [5]): 0.0435 ± 0.013; protein stability index (Saccharomyces cerevisiae [2]; [6]): 0.0381 ± 0.0045; protein stability index (Saccharomyces cerevisiae [2]; [7]): 0.0501 ± 0.019; protein stability index (Saccharomyces cerevisiae [2]; [8]): 0.0652 ± 0.014; protein stability index (Saccharomyces cerevisiae [2]; [9]): 0.545 ± 0.023; protein stability index (Saccharomyces cerevisiae [2]; [10]): 0.0298 ± 0.0067; protein stability index (Saccharomyces cerevisiae [2]; [11]): 0.0556 ± 0.015; protein stability index (Saccharomyces cerevisiae [3]): 0.0658 ± 0.021
CLVSLPILLFFRA | 0.0659 | 0.475 | 
CLVSLPILLFFRF | 0.0553 | 0.483 | 
CLVSLPILLFFRL | 0.0549 | 0.512 | 
CLVSLPILLFFT | 0.248 | 0.528 | 
CLVSLPILLFPR | 0.628 | 0.654 | 
CLVSLPILLGFR | 0.391 | 0.653 | 
CLVSLPILNFFR | 0.637 | 0.66 | 
CLVSLWILLFFR | 0.149 | 0.365 | 
CLVSLYILLFFR | 0.174 | 0.347 | 
CLYSLPILLFFR | 0.0509 | 0.586 | 
DLVSLPILLFFR | 0.109 | 0.637 | 
DVTRLDAIYFRI | 0.481 | 0.739 | 
GFYMCSVGCWFR | 0.204 | 0.632 | 

Sequence | protein stability index (Saccharomyces cerevisiae [1]) | protein stability index (Saccharomyces cerevisiae [4]) | also measured
GLHMCSVGCWFR | 0.214 | 0.682 | 
GLRMCSVGCWFR | 0.248 | 0.676 | 
GLVSLPILLFFR | 0.0632 | 0.608 | 
GLYMCHVGCWFR | 0.279 | 0.629 | 
GLYMCLVGCWFR | 0.254 | 0.406 | 
GLYMCRVGCWFR | 0.291 | 0.638 | 
GLYMCSVGCKFR | 0.619 | 0.654 | 
GLYMCSVGCVFR | 0.561 | 0.627 | 
GLYMCSVGCWER | 0.632 | 0.656 | 
GLYMCSVGCWFRH | 0.271 | 0.616 | 
GLYMCSVGCWFRL | 0.114 | 0.624 | 
GLYMCSVGCWTR | 0.555 | 0.601 | 
GLYMCSVGLWFR | 0.184 | 0.534 | 
GLYMCSVMCWFR | 0.263 | 0.383 | 
GLYMCSVNCWFR | 0.487 | 0.566 | 
GLYMCSVQCWFR | 0.354 | 0.416 | 
GLYMCVVGCWFR | 0.217 | 0.354 | 
GLYMCWVGCWFR | 0.182 | 0.387 | 
GLYMFSVGCWFR | 0.234 | 0.524 | 
GLYMNSVGCWFR | 0.351 | 0.704 | 
GVTRLDAIYFRI | 0.229 | 0.69 | 
KITLPMCPLLLR | 0.253 | 0.653 | 
MLYMCSVGCWFR | 0.328 | 0.604 | 
NLYMCSVGCWFR | 0.414 | 0.657 | 

Sequence | protein stability index (Saccharomyces cerevisiae [1]) | protein stability index (Saccharomyces cerevisiae [4]) | also measured
PLYMCSVGCWFR | 0.462 | 0.643 | 
RALRVLLPLYFR | 0.353 | 0.669 | 
RLLRVLLPLYFR | 0.407 | 0.673 | 
RLYMCSVGCWFR | 0.382 | 0.644 | 
RQTRLDAIYFRI | 0.505 | 0.703 | 
RSKRVLLPLYFR | 0.362 | 0.675 | 
RSLKVLLPLYFR | 0.27 | 0.666 | 
RSLMVLLPLYFR | 0.34 | 0.637 | 
RSLRFLLPLYFR | 0.322 | 0.632 | 
RSLRLLLPLYFR | 0.289 | 0.656 | 
RSLRNLLPLYFR | 0.465 | 0.687 | 
RSLRSLLPLYFR | 0.469 | 0.702 | 
RSLRVLAPLYFR | 0.352 | 0.687 | 
RSLRVLLCLYFR | 0.306 | 0.471 | 
RSLRVLLILYFR | 0.23 | 0.38 | 
RSLRVLLMLYFR | 0.218 | 0.468 | 
RSLRVLLPLHFR | 0.517 | 0.714 | 
RSLRVLLPLSFR | 0.401 | 0.673 | 
RSLRVLLPLYFE | 0.524 | 0.64 | 
RSLRVLLPLYFF | 0.364 | 0.502 | 
RSLRVLLPLYFN | 0.107 | 0.165 | 
RSLRVLLPLYFRG | 0.324 | 0.694 | 
RSLRVLLPLYTR | 0.547 | 0.648 | 
RSLRVLVPLYFR | 0.218 | 0.657 | 

Sequence | protein stability index (Saccharomyces cerevisiae [1]) | protein stability index (Saccharomyces cerevisiae [4]) | also measured
RSLRVMLPLYFR | 0.217 | 0.625 | 
RSLWVLLPLYFR | 0.284 | 0.605 | 
RSMRVLLPLYFR | 0.257 | 0.653 | 
RSTRLDAIYFRI | 0.53 | 0.678 | 
RSWRVLLPLYFR | 0.297 | 0.692 | 
RVMRLDAIYFRI | 0.302 | 0.656 | 
RVTILDAIYFRI | 0.545 | 0.663 | 
RVTKLDAIYFRI | 0.483 | 0.667 | 
RVTRLDAIGFRI | 0.69 | 0.696 | 
RVTRLDAIRFRI | 0.616 | 0.652 | 
RVTRLDAIYFDI | 0.7 | 0.734 | 
RVTRLDAIYFRIH | 0.087 | 0.143 | 
RVTRLDAIYFRIY | 0.123 | 0.242 | 
RVTRLDAIYMRI | 0.382 | 0.71 | 
RVTRLDAIYWRI | 0.385 | 0.684 | 
RVTRLDEIYFRI | 0.685 | 0.731 | 
RVTRLDYIYFRI | 0.179 | 0.538 | 
RVTRLLAIYFRI | 0.155 | 0.287 | 
RVTRLRAIYFRI | 0.159 | 0.314 | 
RVTRQDAIYFRI | 0.553 | 0.698 | 
RVTTLDAIYFRI | 0.524 | 0.661 | 
RVTWLDAIYFRI | 0.323 | 0.656 | 
RVWRLDAIYFRI | 0.246 | 0.543 | 

— the supplement of paper PMC10724198
